Measured values from the supplement of paper PMC9170038.

System: MS2 coat protein
Assay: apparent KD of MS2 coat protein; higher = weaker reporter binding
Details: Eterna round: R107
Method in brief: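 On-chip transcription from Illumina sequencing clusters produced the designed RNA switches. These were titrated with SNAP-549-labelled MS2 coat protein (twofold steps, 0.7 or 1.5 nM to 3 µM) in 100 mM Tris-HCl pH 7.5, 80 mM KCl, 4 mM MgCl2, with or without constant ligand. The apparent KD given is the per-design median of normalised cluster binding-curve fits.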

[1] = input ligand: theophylline 20 uM
[2] = input ligand: theophylline 2 mM
[3] = input ligand: tryptophan 2.4 mM

| Sequence | apparent KD of MS2 coat protein (input ligand: arginine 13.2 mM) [nM] | apparent KD of MS2 coat protein (input ligand: none) [nM] | apparent KD of MS2 coat protein [1] [nM] | apparent KD of MS2 coat protein [2] [nM] | apparent KD of MS2 coat protein [3] [nM] |
| --- | --- | --- | --- | --- | --- |
| AGGUGGCGCGGAAGGAGCGAGUUUGCCUAUUACAUGAGGAUCACCCAUGUGGGUAAUGGGACUCAGGUAGGUCGCCGUUGUCGCU [Same State Arginine B GF 27] | 35.6 | 47.9 | 91.5 | 68.8 | 61.5 |
| ACAUGAGGAUCACCCAUGUAAGGUCUUGAUACCAGACGCGAAGUAGUCCCUUGGCAGCAAAUACGUGAGGGUCGCACAUGUGUAA [mcnmullin] | 18.4 | 33.1 | 35.9 | 59.8 | 27.8 |
| AGGUGGGUCUGAAGGAGCGCGAUAACAUGAGGAUCACCCAUGUUAAAUGGUACAUGAUACUCGCAGGUAGGUCGCAGUAAAACCA [Same State Arginine B GF 12] | 25 | 84.4 | 73.1 | 93.8 | 53.1 |
| GAUGAUAUUGCAGAUACCAGACACAUGAGGAUCACCCAUGUCGCUGGGUUACUGGGUCGUGUCCCUUGGCAGCUGCGAUAUCAUC [Belize] | 33.6 |  | 89.2 |  | 42.1 |
| GAUAUGGAAACAUGUCAGAUCCUUACCGGUCGAGGACCGGUACGGCCGCCACUCGAAAACGAUGUACAUGAGGAUCACCCAUGUA [Ex Tryptophan A 19] | 13.7 | 14 | 16.2 | 14.7 | 21.6 |
| UGGAGAUAGACGGCCGCCACUAACAUGAGGAUCACCCAUGUCGUCACGAAUGGAUGGCCCUAGAAUAGGACCGGGUCCGGAUUCA [theeternabot_exclusion_MS2_Trp_B_48] | 23.7 |  | 42.5 | 50.6 |  |
| AUAACAGUGUCGGCCGCCACUAGAACACAUGAGGAUCACCCAUGUGGUGGUACCUCCUAAGACGAUAGGACCGGGACCCAUCUAC [theeternabot_exclusion_MS2_Trp_B_12] | 50.4 |  | 108 | 143 |  |
| AGCACUGUGGCGGCCGCCACUACAUAUAGGGUGGUCAGGCCCAUAAUACAUGAGGAUCACCCAUGUAGGACCGGGCCUCAGUGCA [Omei Trp Exc B A v13] | 12.7 |  | 20 | 16.5 |  |
| AAUAACAUGAGGAUCACCCAUGUAAAAGAUACCAGAGUGAUGAUCCUCCCUUGGCAGCUUAAACGCUAUUGGAAACAAUAGCGAA [Mat - Same State Theophlline A - Mod of Eli - D3] | 54.5 |  | 163 |  | 57.7 |
| GCUAGGUCUACGGCCGCCACUAGACGUGGGUUAAACAUGAGGAUCACCCAUGUGCUACAGGCGCAUAGGACCGGGUAGACCUAGC [SSTB NP+V+V2 #9 +-Same Structure] | 86.5 | 494 | 586 | 696 | 63.7 |
| GAGGGUGAAUCUCUAGUCCGUUUGACGGAUACCAGCGAGAGGUAUCGCCCUUGGCAGCCGACGACAUGAGGAUCACCCAUGUUAA [#07 Exclusion-TheophyllineA] | 22.2 | 40.6 | 42.6 | 22 | 29.3 |
| GCGGACAUGAGGAUCACCCAUGUAAAUCCUCGAGGACCGGUACGGCCGCCACUCGAACGAGUGGCGCGCGCGCGCGCGCGCGCGC [aAa] | 25.3 | 40.5 | 119 | 78.9 | 45.2 |
| UUUACAUGAGGAUCACCCAUGUUCCAUGAUACCAGACAUGAAAAUGUCCCUUGGCAGCAUGAAUGAUUCAUAGGAUAAUUAUGGG [Medlanky] | 79.7 |  | 116 |  | 72.6 |
| GAUAUGGAAACAUGUCAGAUCCUUACCGGUCGAGGACCGGUACGGCCGCCACUCGGAAAUAUUGUACAUGAGGAUCACCCAUGUA [Ex Tryptophan A 18] | 14.1 |  | 16.1 | 16.1 |  |
| ACGAUAGGGCAUGAGGAUCACCCAUGUGAUACCAGCCUGGAAACAGGCCCUUGGCAGCAUUAAUACUCCAAUAACCUAUCGAAUA [TheoAX 17 #MicroSwitchBubble #AlternativeMS2] | 91.5 | 129 | 184 | 864 | 111 |
| AAAUCAGUCUGAAGGAGCGUCACAUGAGGAUCACCCAUGUACAUGAGGAUCACCCAUGUGUGACAGGUAGGUCGCAGAGGAUACC [Exclusion Arginine B GF 4] | 125 | 169 | 168 | 207 | 213 |
| GGUCUCUGGAGCGAUACCAGCUUGAGUGUACUGGCCAGGUACAUGAGGAUCACCCAUGUAAGCCCUUGGCAGCGCUCCAGAGACC [#1 Exclusion - Theophylline B Attempt #15 (HarryS)] | 9.19 | 9.21 | 14 | 44.7 | 11 |
| GGACUAACCAGAAGGAGCGACACGCAGAAACUGCAAAUUCCUCCACACGAGGAUCACCCGUGUCAGGUAGGUCGCUGGUUAGUCG | 27.8 | 24 | 31.1 | 28.4 | 22.2 |

| Sequence | apparent KD of MS2 coat protein (input ligand: arginine 13.2 mM) [nM] | apparent KD of MS2 coat protein (input ligand: none) [nM] | apparent KD of MS2 coat protein [1] [nM] | apparent KD of MS2 coat protein [2] [nM] | apparent KD of MS2 coat protein [3] [nM] |
| --- | --- | --- | --- | --- | --- |
| ACGACGCAUAGUGAUACCAGUACAACAUGAGGAUCACCCAUGUCACAUAUGUUGUAAUAGUGCCCUUGGCAGCACUAUGCGUCAG [SSTheo B #3] | 94.4 |  | 106 |  | 125 |
| GAUCCACAUGAGGAUCACCCAUGUGAGGAUACCAGUACCAGAUCCUACCCUUGGCAGCCUAACCUUCAUUCAACACGAAUAAGAA [theeternabot_sameState_MS2_Theo_A_20] | 13.8 |  | 16.7 |  | 15 |
| ACCUUACAUGAGGAUCACCCAUGUCGUGAUACCAGAAACCACGUAUUCCCUUGGCAGCACACCCGUGAUGAGAUUGUCGGUUUUG [theeternabot_sameState_MS2_Theo_A_43] | 42.2 |  | 86.3 |  | 49.2 |
| GCUGCCAUACGAAGGAGCGCUGCUGCGAUGUGGCGAACAUGAGGAUCACCCAUGUGGCAGCGGCAGGUAGGUCGCGUAUGGCAGC [#02 Exclusion - Arginine B] | 45.2 | 166 | 330 | 297 | 206 |
| GAGGGUGGGUCUCUAAUCCGUUUGACGGAUACCAGCGAGAGAUAUCGCCCUUGGCAGCCGACGACAUGAGGAUCACCCAUGUAAA [#06 Exclusion-TheophyllineA] | 17.1 |  | 19.6 |  | 16.9 |
| AUACAUGAGGAUCACCCAUGUCAUUCAGAAGGAGCGUCAUUUUAGACAGGUAGGUCGCUGAUAGUAUUUUUAUACUUUAUGUUUA [JR_SSArginiA_Sub015] | 19.5 | 20.3 | 29.3 | 23.3 | 21.6 |
| AAAGUUGAUGAGUUGUGUUUGUGUUCGGAAGGAGCGGGAAUUAUCUCAGGUAGGUCGCCGAACAUGAGGAUCACCCAUGUAUAAA [XArg-A 18 NuV2 original #dotplot2>1] | 40.2 | 98.7 | 80.1 | 206 | 82.6 |
| AAGAAAACAUGAGCAAAGCUCAUGUGCGAAGGAGCGGCGGAAACGCCAGGUAGGUCGCGCACAUGAGCAUCAGCCAUGUGUAUCA [Omei Arginine B SS A v3] | 43.5 | 36.7 | 76.9 | 101 | 19.4 |
| ACGAACGAUAGUGAUACCAGACGAACAUGAGGAUCACCCAUGUUAUACACAUGGUUUAUUGUCCCUUGGCAGCACUUUAAGUUCG [JR_ExcTheophyB_Sub006] | 80.1 |  | 139 |  | 146 |
| AUAUUAGACCUGGAUACCAGCGACAUGAGGAUCACCCAUGUAUGUGCAUCUGCCAUGAUAUGCCCUUGGCAGCCACCGAGGUCGU [CZZMULLIN] | 12.4 |  | 16 |  | 10.8 |
| ACAUGAGGGCGAAGGAGCGCGAACAUGAGGAUCACCCAUGUGUAUGUAUGUUGUCAUGUAUCGCAGGUAGGUCGCGCUGUUACAU [Exclusion Arginine B] | 90.1 | 233 | 245 | 341 | 307 |
| GACGGGCCUAUUGAUACCAGACCUAGUGACAACAUGAGGAUCACCCAUGUGACGGCAAAAGUCCCUUGGCAGCAAGUAGAAAUAA [theeternabot_sameState_MS2_Theo_B_41] | 14 |  | 16.6 |  | 15.4 |
| GCGCUCGACAGAAGGAGCGGCGACGUCGGUGUCAGGAGGCACAUGAGGAUCACCCAUGUCAGCCAGGUAGGUCGCUGUCGAUCGC [Arquce] | 22.8 | 37.3 | 41.9 | 40.1 | 36.8 |
| UACAUGAGGAUCACCCAUGUAUGAAGGGAUACCAGCGACAGUAAGCGCCCUUGGCAGCCCGUGAAUAAAGGGUGGGUAAAAUAGU [Exclusion Theophyline A GF 3] | 26.9 | 21.4 | 30.9 | 39.4 | 16.1 |
| AAUAUCAUGAGGAUCACCCAUGAAGAAGAUACCAGAGUGAUGAUCCUCCCUUGGCAGCUUAACGCUGAUUGAUUACAAUCAGCGA | 31.1 | 51.8 | 128 | 200 | 30.3 |
| AAUAACAUGAGGAUCACCCAUGUAAAAGAUACCAGAGUGAUGAUCCUCCCUUGGCAGCUUAAUAACGCUAUCGGAAACGAUAGCG [Mat - Same State Theophlline A - Mod of Eli - D8] | 37.7 |  | 170 |  | 72 |
| UUCGUUUACGGAAGGAGCGACGGACAUCGGUGAUCUAUGCACAUGAGGAUCACCCAUGUACGUCAGGUAGGUCGCCGUUAAGAGU [XArg-B28] | 28.4 | 80.8 | 96.5 | 184 | 9.59 |
